Positions count from the first letter of the chain named.
What was measured:
Assay in all cases: cell-based or functional assay
[1] = biological target: T1, BAD (N-terminal BAD peptide)
T1 sequence (peptide): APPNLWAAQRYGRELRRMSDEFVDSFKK

BAD(G) = biological target: T2, BAD(G)
T2 sequence (peptide): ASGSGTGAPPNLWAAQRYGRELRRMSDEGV

Bad(L) = biological target: T3, Bad(L)
T3 sequence (peptide): T2 sequence (peptide) with G29L

Bad(F) = biological target: T4, Bad(F)
T4 sequence (peptide): T2 sequence (peptide) with G29F

BAD(V) = biological target: T5, BAD(V)
T5 sequence (peptide): T2 sequence (peptide) with G29V

MS1(I17A) = biological target: T6, MS1(I17A)
T6 sequence (peptide): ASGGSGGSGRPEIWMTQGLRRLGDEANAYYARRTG

MS1(I17G) = biological target: T7, MS1(I17G)
T7 sequence (peptide): T6 sequence (peptide) with A26G

Bcl-TEV IRES iADAR = biological target: Bcl-TEV IRES iADAR

Chain of Bcl-xL (Q07817 4-198 limits assumed): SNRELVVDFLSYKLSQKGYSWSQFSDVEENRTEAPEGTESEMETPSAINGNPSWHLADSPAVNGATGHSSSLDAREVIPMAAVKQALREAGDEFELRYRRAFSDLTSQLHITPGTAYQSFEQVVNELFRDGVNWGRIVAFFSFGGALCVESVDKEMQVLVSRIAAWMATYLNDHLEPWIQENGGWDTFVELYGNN
Chain of Mcl-1 (Q07820 172-327 limits assumed): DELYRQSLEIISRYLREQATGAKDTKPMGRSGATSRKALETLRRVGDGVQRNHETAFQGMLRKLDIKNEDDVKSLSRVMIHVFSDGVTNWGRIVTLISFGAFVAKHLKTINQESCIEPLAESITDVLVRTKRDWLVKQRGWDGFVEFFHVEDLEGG

Substance: Bcl-xL (from UniProt Q07817 4-198)
- fold change of mNeonGreen/mCherry with A-1331852, nBAD-ADAR-cBcl-xL with unmutated DD, HEK cells, microscopy (intramolecular pair) [1]: 5.9 fold
- Fold Change, 1 µM against 0 µM A-1331852, HEK cells, flow cytometry (intramolecular pair) (BAD(G)): 9.65 fold
- median ratio of mNeonGreen to mCherry, 0 µM A-1331852, HEK cells, flow cytometry (intramolecular pair) (BAD(G)): 0.1
- median ratio of mNeonGreen to mCherry, 1 µM A-1331852, HEK cells, flow cytometry (intramolecular pair) (BAD(G)): 0.968
- Fold Change, 1 µM against 0 µM A-1331852, HEK cells, flow cytometry (intramolecular pair) (Bad(L)): 23.2 fold
- median ratio of mNeonGreen to mCherry, 0 µM A-1331852, HEK cells, flow cytometry (intramolecular pair) (Bad(L)): 0.0389
- median ratio of mNeonGreen to mCherry, 1 µM A-1331852, HEK cells, flow cytometry (intramolecular pair) (Bad(L)): 0.903
- Fold Change, 1 µM against 0 µM A-1331852, HEK cells, flow cytometry (intramolecular pair) (Bad(F)): 37 fold
- median ratio of mNeonGreen to mCherry, 0 µM A-1331852, HEK cells, flow cytometry (intramolecular pair) (Bad(F)): 0.026
- median ratio of mNeonGreen to mCherry, 1 µM A-1331852, HEK cells, flow cytometry (intramolecular pair) (Bad(F)): 0.962
- Fold Change, 1 µM against 0 µM A-1331852, HEK cells, flow cytometry (intramolecular pair) (BAD(V)): 14.4 fold
- median ratio of mNeonGreen to mCherry, 0 µM A-1331852, HEK cells, flow cytometry (intramolecular pair) (BAD(V)): 0.0708
- median ratio of mNeonGreen to mCherry, 1 µM A-1331852, HEK cells, flow cytometry (intramolecular pair) (BAD(V)): 1.02

Substance: Mcl-1 (from UniProt Q07820 172-327)
- fold change of mNeonGreen/mCherry with S63845, MS1(A)-Mcl1 ADAR with unmutated DD, HEK cells, microscopy (intramolecular pair) (MS1(I17A)): 12 fold
- fold change of mNeonGreen/mCherry with S63845, MS1(I17G)-Mcl1 ADAR with unmutated DD, HEK cells, microscopy (intramolecular pair) (MS1(I17G)): 2.8 fold

Substance: TEV Protease (from UniProt P04517 2038-2271) (enzyme)
- fold change of the mean RFU (mNeonGreen-to-mCherry), TEV protease against filler DNA, single-transcript IRES-iADAR, HEK cells, microscopy (Bcl-TEV IRES iADAR): 17 fold
- fold change of the mean RFU (mNeonGreen-to-mCherry), dual addition of A-1331852 and TEV protease, single-transcript IRES-iADAR, HEK cells, microscopy (Bcl-TEV IRES iADAR): 32 fold
